This passage reports protein production results from a protein production outcome set (Wang et al. 2014).
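Also: failed if final PepcDB status was selected cloned or expressed and not failed if soluble or beyond.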

This data set in a line: label from the status in PepcDB records.
“MKDISLKDKITQGINDLFYIWKREFRTTFRDQGVLIFFVLVPLVYPLIYSFIYTNEVVREVPAVVVDDSRSSLSREYLRKVDATPDIQIVAYCADMEEAKQMLKDRLAYGIIYIPKDFSSDIAQGKQTQVSIYCDMSGLLYYKSMLLANTAVSLDMNENIKIARSGNTTDRQDEITAYPIEYEDVAMFNPTNGFAAFLIPAVLILIIQQTLLLGIGLSAGTARENNRFKDLVPINRHYNGTLRIVLGKGLSYFMVYALVSVYVLCAVPRMFSLNQIGQPGTLALFILPYLMACIFFAMTASIAIRNRETCMLIFVFTSVPLLFISGISWPGAAIPPFWKYFSYIFPSTFGINGFVRINNMGATLSEIPFEYKALWIQTGFYFLTTCWVYRWQIIKSRKHVIDKYKEMKNKGKEFFS”: the protein production entry is “failed”.

For the sequence “MKDLFSTDSQRYQQARPTYPPSLLQSLLQYIPERELAWDCGAGSGQLTHMLASYFDQVVGTDISQTQLSHAEYYDNISYQLQPAENTTFPDHCFDLITVAQAIHWFDFEAFYAEVRRTIKPSGILAVVGYGLIHVDDLEINAKVQHLYHQTLNGFWDAERHYVDELYQTIPFPFDEIEMPAFQIEAQWTLQQLLQYLNTWSAVQHYILEKNLDPVQQLLSKGRDLQDQVSIQFPVLLRVGRCS”, the protein production entry is “failed”.

Regarding “MKDLIIVGAGGFGREVAWLVEDINNNNREWNLLGFIDENEQNHGNELNGYKVLGGFDYLNNKKNIYYVCAIGNAKVRKEIVEKKCSKYNIKPANLIHPSVIMSKKYNKMGEGCIICASNIITVNVTLGDHIIVNLDCTIGHDVVINDYVTIYPSVNVSGNCNIGECVELGTGTQVIQGNNIGDRTIVGAGSVVIRNIEGDKVAVGVPTKVIK”, the protein production result is “failed”.

With “MKDLSSIVAKFNTQGTITEIKPLGAGLINDTYKVNTQEADAPDYVLQRINHAIFQNVEMLQSNIAAVTGHIRKKLTEAGEADIDRKVLSFLATEEGKTYWFDGESYWRVMVFIPRAKTYETVNPEYSNYAGEAFGNFQAMLADIPETLGETIPDFHNMEFRLKQLRDAVAANAAGRVAEVQYYLDEIEKRADEMCKAERLFREGKLPKRVCHCDTKVNNMMFDEDGKVLCVIDLDTVMPSFIFSDYGDFLRTGANTGDEDDKDLNRVNFNMEIFKAFTKGYLKGAKSFLTPIEIENLPYAAALFPYMQCVRFLADYINGDTYYKIKYPEHNLVRTKAQFKLLQSVEEHTPEMVAFINECLVNGLEHHHHHH”, the protein production result was “failed”.

For the sequence “MKDLTQGSIPKHLISMALPMMIGMLIQTLYFIVDLYFVGKLGSAALAGLSLAGNAMFLIFALTQILNVSTAALISHAVGAKDQQDANLTFNQSMMLSTVVGIIVCIIGYFGAQDYLNLISQDSETVMMGLTYLHWFIPCMALQFIMVSISSALRGTGIVKPTMVIQTLSILLNIILSPILITGWGSGYAMGIAGAGFASSLSVIFAVVLLCYYFITTDKYVSVDFSLWHINVPRIKKLLAIGLPAGGEFFLMFVYMGAIYWLIKPFGAEAQAAFGLGSRVMQALFLPAMAIAFAAPAIAGQNFGAQNYQRVRDTFRWTAIMTCSLMAIILLICLSQAEWMLTHFSDDREVILISVAFLQMICWNFVPAGLVFTCSGMFQALGNTMPALLSTATRLITFILPALWLSKQSDFQIEQLWYVSVATVCLQSSVSFYFLKREFKKRLPNDNLSNECSDELNKNKLIT”, the protein production result is reported as “failed”.

As to “MKDMKMQSSPETMMTRIPTPDPHSTGVREDAMDSVCKPWKLYENPYYCSSQSQQHQHQRKAFIWDLNFIKVFMESELGKAQDEIKELKAELDYERKARRRAELMIKKLAKDVEEERMAREAEEMQNKRLFKELSSEKSEMVRMKRDLEEERQMHRLAEVLREERVQMKLMDARLFLEEKLSELEEANRQGERERNRMMKPKILERACSSPARRRCENPQIKRGINPFPRVMRAIRSKSEKWGSKLECQKVQLKILLRQKTTPRCTPLLSSPPP”, the protein production entry was “failed”.

Regarding “MKDMQTKIVMIGILLSTGIMLRAQDNGGCEDCPAFNAGGKVEVRGVKERIIGDLSQPVAVRVRTLIQQMTLAEKVAQLVSESDSIPRLNLPAYNYWNECLHGVARAGEVTVFPQAINLASTWDTVLVKRVASAISTEARLKYLEIGKGLTYWSPTINMARDPRWGRNEETYGEDPHLTSRLGVAFVKGLQGDHPTYLKTVATIKHFVANNEENNRFSSSSQIPTKQLYEYYFPAYEACVKEANAQSVMTAYNAFNGVPPSGSHWLLDDVLRKEWGFDGFVVSDCGAIGVMNWQHRVVNSLEEAAALGVNSGCDLECGTTYKEKLVQAVEQGLISEAAIDRALTRVLTARFKLGEFDPMELVPYNHYDKKLLAGKKFAELAYEAAVKSVVLLKNDALLPLNKEKIKSVAVVGPFADYNYLGGYSGQPPYSVSLLKGVKELIGKKGKVTYLNGMGTSADSIAQVVKGADIVLVALGSDEKMARENHDMPSIYLPEEQEKFLKKIYQVNPRIVLVFHTGNPLTSEWADTHILAIMQAWYPGQEAGRALANLLFGNENPSGKLPMTIYKTEEQLPDILDFDMWKGRTYRYMKGEPLYGFGHGLSYTSFEFDNIQGNDTLQPDAILQCSVELSNSGQLAGEEVVQVYVSRENTPVYTYPLKKLVAFKKVKLASGEKKKVDFTIAPRELSVWEDGKWRMLSGKYTLFIGSGQPGLAKGITKGFEVKIR”, the protein production entry is recorded as “failed”.

Consider “MKDREIFAGLSTTVPFVLRLDGRSFHRFSKDRYKKPYDKVFSDAMVKTARALVTDSGLSPSFAYTFSDEISLYVPAPVFDCRVEKLASVSAAFAASAFTLYAGASEPLAFDARVIPIEEGLFPAYLSWRQAEAWRNHMNGYAQKILQDEGVSPTNAQKQLDGMNAAALHEFAFSRGVNLALTPAWERRGICIYRDVVMRDGYNPIKDEKVSVERTIAVIDEDVPLFKSPEGTAWVLSKIRLEHHHHHH”, for which the protein production result is “failed”.

“MKDRLINFFGSEWFGMAIATLAVAQTFFLASRYMENITLKYTGEIFFYLGIIIFLVIFILWTIRGLTIHDKKWSHWNNLTRLSFIALVPIILFVINHITIELYGINELMARLSLYNYFFSYFLALILGVLLGYRIYTKEINRNEINYAIIIPPLSIGTSIFLATPLIGYYHGTIAESIYFLVLMGLGIFFFLYIFIGSVALSGHVSNKSGSSLPTAMLPVGVSSLIIINLISINSFGAVIDHLPFSIYTVEFVSILLWGFEVWNFLVMMIIVFRKETFGYLSVWAYGFPLGLFATSTIKLEEVTKIVILGNIFIFIWVALVLLWFYGILNTYVFIRRGILGSHPDK”: the protein production result is given as “failed”.

On to “MKDSQEVTHFSAARSSKWTQHDTYWLLSLFGTAVGAGILFLPINIGLGGFWPLVLMAVLAFPMTYLSHRGLARFVLSSRRPNADFTDVVEEHFGQNAGRLISLLYFLSIFPILLIYGVGLTNTVDSFLVNQADMVSPPRALLSGALVFGLIAIMLSGEKIMLRAFAIMVYPLAAILALLSLYLIPYWSMPSFDFPQTSDFLHTVWLAVPVVVFSFSHAAAISSFANIQRRHYGEQADQKSEQILRHTSVVLILFVLLFVFSCVLALSPQALQEAKAQNISVLTYLANVTDNPFIATLGPLVAFIAITSSFLGHFLGARESLSGLLTKNLGVSLRLAERLTIGFLFVTIWIAAILNPSILGMMEALSGPVIAMILFIMPMIAVFKVPALREHQKRFSTFFVLLVGLLAVSALLYSLLR”, for which the protein production entry was “failed”.

“MKDVIVIGAGPSGSFAAYRLAKAGFTVDILEEHREVGKPVECTGLVSQRVLKYVRTKSIAGTVRGANIFFPNGKSVHIEKDDPTIVLFRDAFDKDVAAMAIGAGSGIRINARALSVTEHDDHVTVRYRENGSIKEEDARIVIGADGINSVVRRDVYGMRQKHVVSTLQYDMASGIEDEDSVNVYLGSQYTHGFFGWAVPGGDIVRVGTGSYKASARPYMDNLSRRFGDNRTLGITGAGIPIRMAERLSSRRTVLVGDAGGIVKPLSGGGIYTGIFSSDVAANYVVEALESDSSEASLRKYDREIRNTIGKELKKDAMIQRIYSRISDRSFNRIYSMISNEKIIDVINRSGDIDYPSTVIIKVLLRNPGILYSMWKLEHHHHHH”: the protein production entry is listed as “failed”.

With “MKEDIVSGTVKRVERHGIIVEVVAGKLDALIPRDQMIPRENFRSGDRIRALFLRVEEIGNTGRKQVILSRTSGDFLVKLYANEVPLEHHHHHH”, the protein production result is listed as “failed”.
